We go through 125 sequences from the supplement of paper PMC9112550, “Optimization of the antimicrobial peptide Bac7 by deep mutational scanning” (BMC Biology, 2022).

In the series the test system is Escherichia coli TOP10. The series is described as follows: shrunken log2 fold change of peptide-encoding DNA abundance (4.5 h post-induction vs induction); higher = less antimicrobial activity (less host growth inhibition). Particulars: time post-induction: 4.5 h; library: site-saturation at positions 5, 18, 19, 20.
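Also: peptides expressed intracellularly from a pBAD plasmid library in pooled LB shake-flask culture, induced with 0.3% L-arabinose, DNA abundance read by NGS, three biological replicates, DESeq2 with apeglm shrinkage.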

Consider RRIRFRPPRLPRPRPRPLMYPRP, for which the “shrunken log2 fold change” value is -0.323.

With RRIRNRPPRLPRPRPRPFNWPRP, the “shrunken log2 fold change” value is -0.123.

On to RRIRARPPRLPRPRPRPCMHPRP, for which the “shrunken log2 fold change” value is -0.226.

Regarding RRIRIRPPRLPRPRPRPRLCPRP, the “shrunken log2 fold change” value was found to be 0.0776.

Regarding RRIRMRPPRLPRPRPRPNPSPRP, the “shrunken log2 fold change” value stood at 0.758.

With RRIRGRPPRLPRPRPRPWQDPRP, the “shrunken log2 fold change” value was 0.00455.

Take RRIRERPPRLPRPRPRPTRTPRP: the “shrunken log2 fold change” value amounted to 0.374.

On to RRIRLRPPRLPRPRPRPAINPRP, for which the “shrunken log2 fold change” value is -0.157.

On to RRIRRRPPRLPRPRPRPQWSPRP, for which the “shrunken log2 fold change” value was -0.00927.

For the sequence RRIRYRPPRLPRPRPRPFSCPRP, the “shrunken log2 fold change” value is -0.0516.

With RRIRKRPPRLPRPRPRPNLGPRP, the “shrunken log2 fold change” value amounted to 0.207.

RRIRARPPRLPRPRPRPSSLPRP: the “shrunken log2 fold change” value worked out at 0.00294.

On to RRIRYRPPRLPRPRPRPGLCPRP, for which the “shrunken log2 fold change” value is -0.0365.

As for RRIRGRPPRLPRPRPRPLFYPRP, the “shrunken log2 fold change” value came to 0.257.

On to RRIRGRPPRLPRPRPRPLRKPRP, for which the “shrunken log2 fold change” value stood at 1.12.

Regarding RRIRQRPPRLPRPRPRPECNPRP, the “shrunken log2 fold change” value was determined as 0.062.

With RRIRGRPPRLPRPRPRPYRMPRP, the “shrunken log2 fold change” value is -0.245.

RRIRCRPPRLPRPRPRPIRFPRP: the “shrunken log2 fold change” value is -0.27.

RRIRDRPPRLPRPRPRPAMMPRP: the “shrunken log2 fold change” value is -0.0512.

Regarding RRIRMRPPRLPRPRPRPCIKPRP, the “shrunken log2 fold change” value is 0.0207.

On to RRIRGRPPRLPRPRPRPGSPPRP, for which the “shrunken log2 fold change” value is 0.469.

As for RRIRMRPPRLPRPRPRPDHSPRP, the “shrunken log2 fold change” value turned out to be 0.318.

With RRIRDRPPRLPRPRPRPDPTPRP, the “shrunken log2 fold change” value is 0.0932.

With RRIRRRPPRLPRPRPRPVLAPRP, the “shrunken log2 fold change” value turned out to be 0.83.

With RRIRGRPPRLPRPRPRPLLAPRP, the “shrunken log2 fold change” value was determined as 2.21.

RRIRLRPPRLPRPRPRPYESPRP: the “shrunken log2 fold change” value is -0.957.

Consider RRIRWRPPRLPRPRPRPALEPRP, for which the “shrunken log2 fold change” value worked out at 0.939.

Take RRIRRRPPRLPRPRPRPITQPRP: the “shrunken log2 fold change” value was -0.0203.

Consider RRIRCRPPRLPRPRPRPMAVPRP, for which the “shrunken log2 fold change” value stood at 0.0112.

As to RRIRARPPRLPRPRPRPLYDPRP, the “shrunken log2 fold change” value is -0.124.

As to RRIRRRPPRLPRPRPRPMTNPRP, the “shrunken log2 fold change” value is -0.00301.

Consider RRIRMRPPRLPRPRPRPHWSPRP, for which the “shrunken log2 fold change” value came out at 0.0857.

In the case of RRIRARPPRLPRPRPRPGNCPRP, the “shrunken log2 fold change” value turned out to be 0.061.

For RRIRPRPPRLPRPRPRPVLPPRP, the “shrunken log2 fold change” value is 0.11.

For RRIRNRPPRLPRPRPRPDVWPRP, the “shrunken log2 fold change” value was -0.0172.

Regarding RRIRHRPPRLPRPRPRPTQHPRP, the “shrunken log2 fold change” value is -0.0131.

Turning to RRIRGRPPRLPRPRPRPLVFPRP, the “shrunken log2 fold change” value came to 0.455.

With RRIRGRPPRLPRPRPRPCDMPRP, the “shrunken log2 fold change” value stood at 0.22.

RRIRPRPPRLPRPRPRPAKSPRP: the “shrunken log2 fold change” value is 0.179.

On to RRIRARPPRLPRPRPRPCIQPRP, for which the “shrunken log2 fold change” value came out at 0.151.

Turning to RRIRLRPPRLPRPRPRPCQKPRP, the “shrunken log2 fold change” value is -0.17.

For RRIRSRPPRLPRPRPRPSNTPRP, the “shrunken log2 fold change” value was -0.748.

Consider RRIRFRPPRLPRPRPRPEISPRP, for which the “shrunken log2 fold change” value is -0.048.

Regarding RRIRFRPPRLPRPRPRPNLCPRP, the “shrunken log2 fold change” value was 0.00999.

For RRIRNRPPRLPRPRPRPHVLPRP, the “shrunken log2 fold change” value was -0.245.

As to RRIRDRPPRLPRPRPRPEPSPRP, the “shrunken log2 fold change” value worked out at 0.885.

As for RRIRLRPPRLPRPRPRPGTHPRP, the “shrunken log2 fold change” value was -0.107.

Consider RRIRQRPPRLPRPRPRPDPPPRP, for which the “shrunken log2 fold change” value amounted to 0.316.

As to RRIRARPPRLPRPRPRPNMIPRP, the “shrunken log2 fold change” value was -0.194.

Take RRIRARPPRLPRPRPRPRPEPRP: the “shrunken log2 fold change” value was 0.686.

Take RRIRIRPPRLPRPRPRPSKEPRP: the “shrunken log2 fold change” value is -0.202.

For RRIRYRPPRLPRPRPRPSQFPRP, the “shrunken log2 fold change” value is -0.257.

On to RRIRVRPPRLPRPRPRPVCMPRP, for which the “shrunken log2 fold change” value was 0.0454.

In the case of RRIRVRPPRLPRPRPRPVNWPRP, the “shrunken log2 fold change” value turned out to be 0.27.

For RRIRWRPPRLPRPRPRPNYMPRP, the “shrunken log2 fold change” value was -0.385.

Consider RRIRFRPPRLPRPRPRPCEYPRP, for which the “shrunken log2 fold change” value is -0.000476.

As for RRIRKRPPRLPRPRPRPHIQPRP, the “shrunken log2 fold change” value was -0.224.

As to RRIRERPPRLPRPRPRPFCQPRP, the “shrunken log2 fold change” value was -0.528.

Turning to RRIRNRPPRLPRPRPRPFDEPRP, the “shrunken log2 fold change” value is -0.305.

For the sequence RRIRKRPPRLPRPRPRPSRQPRP, the “shrunken log2 fold change” value stood at 0.192.

With RRIRERPPRLPRPRPRPANIPRP, the “shrunken log2 fold change” value is -0.465.

Take RRIRTRPPRLPRPRPRPGLQPRP: the “shrunken log2 fold change” value was -0.138.

Turning to RRIRARPPRLPRPRPRPECYPRP, the “shrunken log2 fold change” value was found to be 0.361.

In the case of RRIRRRPPRLPRPRPRPHIKPRP, the “shrunken log2 fold change” value was -0.43.

For RRIRKRPPRLPRPRPRPCPGPRP, the “shrunken log2 fold change” value was -0.251.

For the sequence RRIRKRPPRLPRPRPRPGAYPRP, the “shrunken log2 fold change” value stood at 0.0945.

For the sequence RRIRNRPPRLPRPRPRPGFDPRP, the “shrunken log2 fold change” value came to 0.189.

As for RRIRYRPPRLPRPRPRPQFQPRP, the “shrunken log2 fold change” value was -0.718.

Take RRIRVRPPRLPRPRPRPNVAPRP: the “shrunken log2 fold change” value came to 0.177.

For RRIRFRPPRLPRPRPRPQDDPRP, the “shrunken log2 fold change” value is -0.493.

Regarding RRIRIRPPRLPRPRPRPTQTPRP, the “shrunken log2 fold change” value was determined as 0.0595.

Turning to RRIRIRPPRLPRPRPRPTGIPRP, the “shrunken log2 fold change” value was -0.0849.

As to RRIRMRPPRLPRPRPRPGNAPRP, the “shrunken log2 fold change” value was 0.573.

Turning to RRIRKRPPRLPRPRPRPNIGPRP, the “shrunken log2 fold change” value was -0.05.

With RRIRQRPPRLPRPRPRPYTRPRP, the “shrunken log2 fold change” value is -0.0062.

As to RRIRSRPPRLPRPRPRPHSNPRP, the “shrunken log2 fold change” value was -0.358.

Consider RRIRTRPPRLPRPRPRPQWHPRP, for which the “shrunken log2 fold change” value was -0.461.

For RRIRSRPPRLPRPRPRPNYKPRP, the “shrunken log2 fold change” value is -0.546.

RRIRPRPPRLPRPRPRPNDFPRP: the “shrunken log2 fold change” value was -0.438.

Turning to RRIRLRPPRLPRPRPRPSCLPRP, the “shrunken log2 fold change” value is -0.392.

For the sequence RRIRWRPPRLPRPRPRPQFNPRP, the “shrunken log2 fold change” value was -0.498.

Regarding RRIRVRPPRLPRPRPRPAAIPRP, the “shrunken log2 fold change” value is -0.0826.

Consider RRIRFRPPRLPRPRPRPRCRPRP, for which the “shrunken log2 fold change” value worked out at 0.109.

On to RRIRTRPPRLPRPRPRPKALPRP, for which the “shrunken log2 fold change” value is 0.293.

With RRIRVRPPRLPRPRPRPHNMPRP, the “shrunken log2 fold change” value was -0.389.

As for RRIRIRPPRLPRPRPRPVNAPRP, the “shrunken log2 fold change” value was -0.113.

RRIRGRPPRLPRPRPRPMPYPRP: the “shrunken log2 fold change” value was 0.0877.

Take RRIRVRPPRLPRPRPRPDDSPRP: the “shrunken log2 fold change” value amounted to 0.13.

For RRIRVRPPRLPRPRPRPKCKPRP, the “shrunken log2 fold change” value is -0.191.

RRIRPRPPRLPRPRPRPGHLPRP: the “shrunken log2 fold change” value came out at 0.234.

For the sequence RRIRQRPPRLPRPRPRPACPPRP, the “shrunken log2 fold change” value was found to be 0.0154.

On to RRIRGRPPRLPRPRPRPTHIPRP, for which the “shrunken log2 fold change” value is 0.255.

RRIRDRPPRLPRPRPRPAMRPRP: the “shrunken log2 fold change” value is 0.415.

In the case of RRIRRRPPRLPRPRPRPWVNPRP, the “shrunken log2 fold change” value is -0.0334.

Take RRIRNRPPRLPRPRPRPMERPRP: the “shrunken log2 fold change” value amounted to 0.019.

For the sequence RRIRFRPPRLPRPRPRPNCHPRP, the “shrunken log2 fold change” value was -0.313.

In the case of RRIRHRPPRLPRPRPRPLGPPRP, the “shrunken log2 fold change” value is 0.191.

RRIRTRPPRLPRPRPRPEQAPRP: the “shrunken log2 fold change” value was found to be 0.173.

For RRIRFRPPRLPRPRPRPEEWPRP, the “shrunken log2 fold change” value is -0.0208.

Turning to RRIRVRPPRLPRPRPRPDQGPRP, the “shrunken log2 fold change” value was 0.00375.

For the sequence RRIRQRPPRLPRPRPRPDGIPRP, the “shrunken log2 fold change” value came to 0.087.

RRIRARPPRLPRPRPRPPERPRP: the “shrunken log2 fold change” value was determined as 0.703.

Consider RRIRQRPPRLPRPRPRPCLPPRP, for which the “shrunken log2 fold change” value is -0.186.

Regarding RRIRLRPPRLPRPRPRPWCGPRP, the “shrunken log2 fold change” value is -0.0859.

Consider RRIRHRPPRLPRPRPRPTTTPRP, for which the “shrunken log2 fold change” value was -0.0186.

On to RRIRNRPPRLPRPRPRPWKTPRP, for which the “shrunken log2 fold change” value was 0.0489.

On to RRIRARPPRLPRPRPRPAGMPRP, for which the “shrunken log2 fold change” value worked out at 0.432.

Take RRIRHRPPRLPRPRPRPVKRPRP: the “shrunken log2 fold change” value is -0.226.

Regarding RRIRTRPPRLPRPRPRPPCLPRP, the “shrunken log2 fold change” value was -0.0659.

RRIRPRPPRLPRPRPRPFPFPRP: the “shrunken log2 fold change” value was -0.00615.

For RRIRQRPPRLPRPRPRPDAIPRP, the “shrunken log2 fold change” value is 0.0472.

Consider RRIRYRPPRLPRPRPRPAELPRP, for which the “shrunken log2 fold change” value is -0.187.

Take RRIRDRPPRLPRPRPRPSASPRP: the “shrunken log2 fold change” value came out at 0.259.

With RRIRHRPPRLPRPRPRPNACPRP, the “shrunken log2 fold change” value is -0.0122.

As for RRIRDRPPRLPRPRPRPWYGPRP, the “shrunken log2 fold change” value was -0.87.

In the case of RRIRQRPPRLPRPRPRPRNKPRP, the “shrunken log2 fold change” value was -0.68.

On to RRIRWRPPRLPRPRPRPQKLPRP, for which the “shrunken log2 fold change” value came out at 0.0774.

For RRIRIRPPRLPRPRPRPMQSPRP, the “shrunken log2 fold change” value amounted to 0.0163.

Turning to RRIRVRPPRLPRPRPRPCHGPRP, the “shrunken log2 fold change” value was found to be 0.000197.

Turning to RRIRKRPPRLPRPRPRPPVEPRP, the “shrunken log2 fold change” value was 0.13.

On to RRIRSRPPRLPRPRPRPALQPRP, for which the “shrunken log2 fold change” value was 0.441.

Take RRIRQRPPRLPRPRPRPRVHPRP: the “shrunken log2 fold change” value is -0.163.

RRIRFRPPRLPRPRPRPIKYPRP: the “shrunken log2 fold change” value was -0.335.

Regarding RRIRDRPPRLPRPRPRPYFYPRP, the “shrunken log2 fold change” value is -0.793.

In the case of RRIRTRPPRLPRPRPRPLVNPRP, the “shrunken log2 fold change” value is -0.559.
